From article doi:10.1101/2023.09.25.559264
Like-named read-outs stand apart in the source and are kept apart here.

How the values were obtained:
Test in all cases: MST
[1] = molecular target: T1, WtIHF (wild-type integration host factor) (E. coli, UniProt P0A6X7;P0A6Y1 1-99;1-94)
[2] = molecular target: T1, WtIHF (wild-type integration host …); remark: listed apart in the source
[3] = molecular target: T1, WtIHF (wild-type integration host …); remark: listed apart in the source

T1 sequence (P0A6X7 whole entry, chain 1 of 2): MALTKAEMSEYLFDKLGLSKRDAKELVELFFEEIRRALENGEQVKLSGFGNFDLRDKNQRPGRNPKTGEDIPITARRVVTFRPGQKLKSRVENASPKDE
T1 sequence (P0A6Y1 whole entry, chain 2 of 2): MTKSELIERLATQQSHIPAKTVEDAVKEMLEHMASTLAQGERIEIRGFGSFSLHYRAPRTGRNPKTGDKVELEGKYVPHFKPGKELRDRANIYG

Binder | Kd [1] | Kd [2] | Kd [3]
H'-HJ (structured_DNA) DNA 1: CCAGACAGCAGTTATCAATTTGTTGGGACGGAGG DNA 2: CCTTCAACCACCGCTCATGATTACTGCTGTCTGG DNA 3: CCTCCGTCCCAACAAATGGCTGCTACCGGAAGGG DNA 4: AAAAACCCTTCCGGTAGCAGCCTGAGCGGTGGTTGAAGG | 2.8 ± 0.5 nM | 12 ± 0.89 nM | 13.6 ± 2.21 nM
H1-HJ (structured_DNA) DNA 1: CCAGACAGCAGTAATCAACTACTTAGGACGGAGG DNA 2: CCTTCAACCACCGCTCATGATTACTGCTGTCTGG DNA 3: CCTCCGTCCTAAGTAGTGGCTGCTACCGGAAGGG DNA 4: AAAAACCCTTCCGGTAGCAGCCTGAGCGGTGGTTGAAGG | 11 ± 1.6 nM | 7.75 ± 1.1 nM | 7.09 ± 0.93 nM
